Experiments:
CANX (human) = CANX (human) (UniProt P27824); assay: co-IP/MS, IgG control IP of N-FLAG B3GNT2 cell lysate
CAPZB (human) = CAPZB (human) (UniProt P47756); assay: as above
DNAJA1 (human) = DNAJA1 (human) (UniProt P31689); assay: as above
ERLIN1 (human) = ERLIN1 (human) (UniProt O75477); assay: as above
ERLIN2 (human) = ERLIN2 (human) (UniProt O94905); assay: as above
FAM3C (human) = FAM3C (human) (UniProt Q92520); assay: as above
FKBP10 (human) = FKBP10 (human) (UniProt Q96AY3); assay: as above
HSD17B12 (human) = HSD17B12 (human) (UniProt Q53GQ0); assay: as above
IPO4 (human) = IPO4 (human) (UniProt Q8TEX9); assay: as above
PCBP1 (human) = PCBP1 (human) (UniProt Q15365); assay: as above
PDIA6 (human) = PDIA6 (human) (UniProt Q15084); assay: as above
PRDX1 (human) = PRDX1 (human) (UniProt Q06830); assay: as above
PRDX2 (human) = PRDX2 (human) (UniProt P32119); assay: as above
RPL12 (human) = RPL12 (human) (UniProt P30050); assay: as above
RPL13A (human) = RPL13A (human) (UniProt P40429); assay: as above
RPL14 (human) = RPL14 (human) (UniProt P50914); assay: as above
RPL24 (human) = RPL24 (human) (UniProt P83731); assay: as above
RPL30 (human) = RPL30 (human) (UniProt P62888); assay: as above
RPLPO (human) = RPLPO (human) (UniProt P05388); assay: as above
RPS3A (human) = RPS3A (human) (UniProt P61247); assay: as above
RPS7 (human) = RPS7 (human) (UniProt P62081); assay: as above
SLC25A4 (human) = SLC25A4 (human) (UniProt P12235); assay: as above
TGM3 (human) = TGM3 (human) (UniProt Q08188); assay: as above
TUBB (human) = TUBB (human) (UniProt P07437); assay: as above
UQCRC2 (human) = UQCRC2 (human) (UniProt P22695); assay: as above
ARPC4 (human) = ARPC4 (human) (UniProt P59998); assay: co-IP, IgG control, lysate of cells with C-FLAG B3GNT2; mass spectrometry
CSE1L (human) = CSE1L (human) (UniProt P55060); assay: as above
DDX5 (human) = DDX5 (human) (UniProt P17844); assay: as above
EIF5B (human) = EIF5B (human) (UniProt O60841); assay: as above
G3BP1 (human) = G3BP1 (human) (UniProt Q13283); assay: as above
HNRNPA2B1 (human) = HNRNPA2B1 (human) (UniProt P22626); assay: as above
HSPA8 (human) = HSPA8 (human) (UniProt P11142); assay: as above
HUWE1 (human) = HUWE1 (human) (UniProt Q7Z6Z7); assay: as above
KRT4 (human) = KRT4 (human) (UniProt P19013); assay: as above
PARP1 (human) = PARP1 (human) (UniProt P09874); assay: as above
PRRC2A (human) = PRRC2A (human) (UniProt P48634); assay: as above
RPL18 (human) = RPL18 (human) (UniProt Q07020); assay: as above
RPL4 (human) = RPL4 (human) (UniProt P36578); assay: as above

Measured: co-IP mass spectrometry count

HUWE1 (human), sequence (Q7Z6Z7 whole entry): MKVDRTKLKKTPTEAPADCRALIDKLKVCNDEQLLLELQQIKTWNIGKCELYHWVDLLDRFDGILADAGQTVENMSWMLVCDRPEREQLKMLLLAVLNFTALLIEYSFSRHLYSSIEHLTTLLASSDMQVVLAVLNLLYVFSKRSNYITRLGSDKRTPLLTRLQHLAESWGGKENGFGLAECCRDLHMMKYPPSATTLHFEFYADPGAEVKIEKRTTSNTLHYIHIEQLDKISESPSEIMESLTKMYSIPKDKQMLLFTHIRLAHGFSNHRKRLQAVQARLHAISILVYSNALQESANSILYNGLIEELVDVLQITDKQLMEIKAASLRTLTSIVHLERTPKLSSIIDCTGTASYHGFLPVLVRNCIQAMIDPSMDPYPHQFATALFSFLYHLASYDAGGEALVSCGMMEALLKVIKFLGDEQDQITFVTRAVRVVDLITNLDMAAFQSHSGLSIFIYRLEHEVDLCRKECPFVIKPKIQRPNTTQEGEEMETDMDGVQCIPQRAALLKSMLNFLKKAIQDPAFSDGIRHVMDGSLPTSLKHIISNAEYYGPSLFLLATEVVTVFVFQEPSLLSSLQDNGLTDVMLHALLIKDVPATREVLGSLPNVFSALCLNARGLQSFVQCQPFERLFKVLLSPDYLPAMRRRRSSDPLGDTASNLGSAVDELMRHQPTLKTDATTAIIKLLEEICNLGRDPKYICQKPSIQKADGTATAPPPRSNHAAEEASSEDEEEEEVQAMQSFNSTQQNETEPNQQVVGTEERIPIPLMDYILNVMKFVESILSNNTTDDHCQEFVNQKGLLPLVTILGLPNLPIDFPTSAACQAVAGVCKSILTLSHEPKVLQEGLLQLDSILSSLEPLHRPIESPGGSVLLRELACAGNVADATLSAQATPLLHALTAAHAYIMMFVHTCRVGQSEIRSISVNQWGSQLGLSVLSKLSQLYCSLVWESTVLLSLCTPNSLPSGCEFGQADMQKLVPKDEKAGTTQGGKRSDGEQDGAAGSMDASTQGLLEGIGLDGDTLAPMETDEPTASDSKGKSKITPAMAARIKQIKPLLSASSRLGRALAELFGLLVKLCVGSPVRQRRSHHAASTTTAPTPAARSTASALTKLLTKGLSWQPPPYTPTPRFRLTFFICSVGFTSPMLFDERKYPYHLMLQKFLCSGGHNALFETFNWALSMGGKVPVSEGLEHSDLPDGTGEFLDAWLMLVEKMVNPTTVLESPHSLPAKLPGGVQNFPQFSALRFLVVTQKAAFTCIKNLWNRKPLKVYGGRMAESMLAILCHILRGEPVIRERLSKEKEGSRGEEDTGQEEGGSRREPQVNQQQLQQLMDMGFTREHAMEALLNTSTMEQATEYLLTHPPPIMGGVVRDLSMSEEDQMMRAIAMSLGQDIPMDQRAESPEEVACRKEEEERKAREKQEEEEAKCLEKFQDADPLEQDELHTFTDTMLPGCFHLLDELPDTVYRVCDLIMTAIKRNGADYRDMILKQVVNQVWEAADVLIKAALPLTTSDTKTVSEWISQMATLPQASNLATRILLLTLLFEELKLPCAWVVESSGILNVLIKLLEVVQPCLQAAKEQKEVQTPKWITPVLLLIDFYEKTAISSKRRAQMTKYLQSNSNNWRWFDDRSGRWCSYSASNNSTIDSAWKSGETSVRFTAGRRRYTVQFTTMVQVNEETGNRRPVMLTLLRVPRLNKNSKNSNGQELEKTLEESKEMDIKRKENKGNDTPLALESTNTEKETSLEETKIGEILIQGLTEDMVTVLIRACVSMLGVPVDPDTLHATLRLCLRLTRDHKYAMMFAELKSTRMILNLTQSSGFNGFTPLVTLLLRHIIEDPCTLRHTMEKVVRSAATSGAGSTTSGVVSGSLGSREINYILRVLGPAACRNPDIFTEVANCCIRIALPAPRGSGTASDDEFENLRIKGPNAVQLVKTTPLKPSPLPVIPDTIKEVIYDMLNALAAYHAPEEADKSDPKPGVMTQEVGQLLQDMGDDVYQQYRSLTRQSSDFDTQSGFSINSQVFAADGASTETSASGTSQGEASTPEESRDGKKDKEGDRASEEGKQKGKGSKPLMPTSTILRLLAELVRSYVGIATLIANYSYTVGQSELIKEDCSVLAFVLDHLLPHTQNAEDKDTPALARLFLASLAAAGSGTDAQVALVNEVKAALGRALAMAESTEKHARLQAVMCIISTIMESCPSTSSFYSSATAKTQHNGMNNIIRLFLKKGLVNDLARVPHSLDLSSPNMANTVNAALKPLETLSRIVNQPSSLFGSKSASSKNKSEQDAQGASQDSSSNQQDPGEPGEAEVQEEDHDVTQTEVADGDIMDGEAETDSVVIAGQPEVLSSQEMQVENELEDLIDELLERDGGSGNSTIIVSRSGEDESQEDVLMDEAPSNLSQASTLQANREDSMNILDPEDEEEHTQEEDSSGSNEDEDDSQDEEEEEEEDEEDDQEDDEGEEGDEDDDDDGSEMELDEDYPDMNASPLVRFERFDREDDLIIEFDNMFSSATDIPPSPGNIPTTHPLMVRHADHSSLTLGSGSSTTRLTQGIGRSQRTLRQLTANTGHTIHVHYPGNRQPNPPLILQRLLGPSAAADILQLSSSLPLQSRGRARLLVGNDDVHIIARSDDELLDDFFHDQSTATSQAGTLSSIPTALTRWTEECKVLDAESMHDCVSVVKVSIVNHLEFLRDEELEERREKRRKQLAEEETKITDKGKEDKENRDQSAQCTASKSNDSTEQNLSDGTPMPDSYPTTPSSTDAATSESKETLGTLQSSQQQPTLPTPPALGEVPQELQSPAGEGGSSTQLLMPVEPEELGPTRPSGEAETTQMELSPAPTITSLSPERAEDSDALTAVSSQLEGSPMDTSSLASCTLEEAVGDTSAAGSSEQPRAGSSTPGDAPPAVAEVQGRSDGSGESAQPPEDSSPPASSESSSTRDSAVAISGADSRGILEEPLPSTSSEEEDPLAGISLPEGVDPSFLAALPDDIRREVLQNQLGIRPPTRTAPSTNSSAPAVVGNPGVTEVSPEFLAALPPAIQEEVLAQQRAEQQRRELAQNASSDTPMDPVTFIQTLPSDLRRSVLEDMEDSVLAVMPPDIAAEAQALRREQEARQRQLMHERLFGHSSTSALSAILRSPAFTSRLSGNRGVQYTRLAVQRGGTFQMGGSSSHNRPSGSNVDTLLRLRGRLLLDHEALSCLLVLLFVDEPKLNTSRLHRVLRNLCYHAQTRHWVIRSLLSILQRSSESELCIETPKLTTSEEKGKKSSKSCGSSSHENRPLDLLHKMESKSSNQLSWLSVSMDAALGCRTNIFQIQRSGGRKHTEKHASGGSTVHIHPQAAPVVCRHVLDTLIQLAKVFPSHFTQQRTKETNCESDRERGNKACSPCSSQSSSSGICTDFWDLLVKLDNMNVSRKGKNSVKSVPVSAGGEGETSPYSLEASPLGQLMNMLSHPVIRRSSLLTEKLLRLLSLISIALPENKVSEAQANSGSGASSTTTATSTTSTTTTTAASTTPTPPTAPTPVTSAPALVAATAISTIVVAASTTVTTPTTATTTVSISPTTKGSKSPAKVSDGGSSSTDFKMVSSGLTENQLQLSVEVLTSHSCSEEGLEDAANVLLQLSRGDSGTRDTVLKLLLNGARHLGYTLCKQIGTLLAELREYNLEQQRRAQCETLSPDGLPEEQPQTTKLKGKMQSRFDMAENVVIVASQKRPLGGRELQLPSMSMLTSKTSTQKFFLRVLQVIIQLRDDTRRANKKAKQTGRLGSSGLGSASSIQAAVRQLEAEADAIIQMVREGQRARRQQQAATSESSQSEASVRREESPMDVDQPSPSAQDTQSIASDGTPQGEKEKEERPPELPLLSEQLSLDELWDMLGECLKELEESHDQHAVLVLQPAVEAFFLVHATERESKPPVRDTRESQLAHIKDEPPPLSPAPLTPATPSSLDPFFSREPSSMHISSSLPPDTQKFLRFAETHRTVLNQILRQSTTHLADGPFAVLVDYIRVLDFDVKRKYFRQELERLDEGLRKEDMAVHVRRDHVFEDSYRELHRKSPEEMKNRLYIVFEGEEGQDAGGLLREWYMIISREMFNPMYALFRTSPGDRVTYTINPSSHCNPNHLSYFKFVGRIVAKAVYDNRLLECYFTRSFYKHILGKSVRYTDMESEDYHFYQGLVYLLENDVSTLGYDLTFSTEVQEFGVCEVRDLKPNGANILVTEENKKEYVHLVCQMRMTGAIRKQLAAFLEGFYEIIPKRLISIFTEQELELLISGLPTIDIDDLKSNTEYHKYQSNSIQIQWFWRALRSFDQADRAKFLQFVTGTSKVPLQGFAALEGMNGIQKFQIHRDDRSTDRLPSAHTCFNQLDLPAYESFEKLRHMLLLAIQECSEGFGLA
TUBB (human), sequence (P07437 whole entry): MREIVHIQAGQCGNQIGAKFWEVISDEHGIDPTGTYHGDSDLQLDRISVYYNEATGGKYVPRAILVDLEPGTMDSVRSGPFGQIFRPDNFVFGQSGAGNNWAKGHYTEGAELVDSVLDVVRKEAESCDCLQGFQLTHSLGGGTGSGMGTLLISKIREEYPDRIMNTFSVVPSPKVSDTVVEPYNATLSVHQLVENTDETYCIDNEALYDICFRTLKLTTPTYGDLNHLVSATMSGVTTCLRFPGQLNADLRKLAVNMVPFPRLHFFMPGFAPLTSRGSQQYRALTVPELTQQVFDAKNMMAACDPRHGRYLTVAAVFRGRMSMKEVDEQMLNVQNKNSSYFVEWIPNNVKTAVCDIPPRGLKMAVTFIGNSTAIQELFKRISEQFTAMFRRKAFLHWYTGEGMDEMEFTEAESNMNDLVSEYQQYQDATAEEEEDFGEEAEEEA
PCBP1 (human), sequence (Q15365 whole entry): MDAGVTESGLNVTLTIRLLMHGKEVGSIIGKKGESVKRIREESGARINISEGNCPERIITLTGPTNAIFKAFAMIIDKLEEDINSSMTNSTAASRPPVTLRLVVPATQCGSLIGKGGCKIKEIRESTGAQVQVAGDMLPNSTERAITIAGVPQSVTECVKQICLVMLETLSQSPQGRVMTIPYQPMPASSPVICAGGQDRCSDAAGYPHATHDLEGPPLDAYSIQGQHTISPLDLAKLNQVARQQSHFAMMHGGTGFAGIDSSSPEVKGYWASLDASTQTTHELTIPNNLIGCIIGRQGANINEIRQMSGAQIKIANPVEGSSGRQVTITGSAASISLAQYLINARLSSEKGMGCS

IgG control (Millipore Sigma 12-371) (antibody)
9: RPS3A (human) | HNRNPA2B1 (human)
2: CAPZB (human) | RPS7 (human) | TGM3 (human)
16: DDX5 (human)
3: PRRC2A (human)
25: G3BP1 (human)
5: PRDX1 (human) | PRDX2 (human)
6: RPL30 (human) | RPL4 (human)
15: HSPA8 (human)
7: RPL14 (human) | RPL18 (human)
4: RPL12 (human) | RPL24 (human)
10: TUBB (human)
0: all other assays above
